Test results published in the supplement of paper PMC9112550, “Optimization of the antimicrobial peptide Bac7 by deep mutational scanning” (BMC Biology, 2022).

system: Escherichia coli TOP10; assay: shrunken log2 fold change of peptide-encoding DNA abundance (4.5 h post-induction vs induction); higher = less antimicrobial activity (less host growth inhibition); settings: time post-induction: 4.5 h; library: site-saturation at positions 5, 18, 19, 20
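Note: peptides expressed intracellularly from a pBAD plasmid library in pooled LB shake-flask culture, induced with 0.3% L-arabinose, DNA abundance read by NGS, three biological replicates, DESeq2 with apeglm shrinkage.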

Point of comparison: RRIRYRPPRLPRPRPRPGTKPRP, “shrunken log2 fold change” value -0.0505. Against it:
- RRIRNRPPRLPRPRPRPDYIPRP — within 0.2 log units, -0.104
- RRIRHRPPRLPRPRPRPMPLPRP — within 0.2 log units, -0.0217
- RRIRMRPPRLPRPRPRPDISPRP — within 0.2 log units, -0.0568
- RRIRRRPPRLPRPRPRPYRSPRP — within 0.2 log units, -0.0969
- RRIRDRPPRLPRPRPRPWVKPRP — within 0.2 log units, 0.0766
- RRIRFRPPRLPRPRPRPVFPPRP — within 0.2 log units, -0.224
- RRIRSRPPRLPRPRPRPAARPRP — higher, 0.247
- RRIRHRPPRLPRPRPRPGEPPRP — within 0.2 log units, -0.0215
- RRIRTRPPRLPRPRPRPAVTPRP — within 0.2 log units, 0.102
- RRIRTRPPRLPRPRPRPWVGPRP — within 0.2 log units, -0.155
- RRIRARPPRLPRPRPRPIVPPRP — within 0.2 log units, 0.0453
- RRIRQRPPRLPRPRPRPYNCPRP — lower, -0.92
- RRIRVRPPRLPRPRPRPNLRPRP — within 0.2 log units, 0.0738
- RRIRCRPPRLPRPRPRPQKNPRP — lower, -0.281
- RRIRSRPPRLPRPRPRPMAYPRP — within 0.2 log units, -0.0939
- RRIRMRPPRLPRPRPRPNFLPRP — within 0.2 log units, -0.0651
- RRIRKRPPRLPRPRPRPGSIPRP — within 0.2 log units, 0.00442
- RRIRERPPRLPRPRPRPKWPPRP — within 0.2 log units, 0.016
- RRIRVRPPRLPRPRPRPQLQPRP — within 0.2 log units, -0.104
- RRIRSRPPRLPRPRPRPLSCPRP — within 0.2 log units, 0.0284
- RRIRSRPPRLPRPRPRPRCKPRP — within 0.2 log units, -0.134
- RRIRCRPPRLPRPRPRPWFAPRP — within 0.2 log units, -0.183
- RRIRIRPPRLPRPRPRPRLFPRP — within 0.2 log units, 0.0705
- RRIRNRPPRLPRPRPRPLGAPRP — higher, 0.413
- RRIRIRPPRLPRPRPRPHCLPRP — within 0.2 log units, -0.104
- RRIRPRPPRLPRPRPRPYRHPRP — lower, -0.483
- RRIRQRPPRLPRPRPRPNDIPRP — lower, -0.348
- RRIRPRPPRLPRPRPRPKGFPRP — within 0.2 log units, 0.0275
- RRIRERPPRLPRPRPRPLYHPRP — lower, -0.419
- RRIRCRPPRLPRPRPRPQEDPRP — within 0.2 log units, -0.0835
- RRIRGRPPRLPRPRPRPQYNPRP — within 0.2 log units, -0.0557
- RRIRRRPPRLPRPRPRPQQFPRP — within 0.2 log units, 0.0492
- RRIRCRPPRLPRPRPRPQSAPRP — within 0.2 log units, -0.0724
- RRIRDRPPRLPRPRPRPQREPRP — within 0.2 log units, -0.0375
- RRIRMRPPRLPRPRPRPKQYPRP — within 0.2 log units, 0.146
- RRIRQRPPRLPRPRPRPFNYPRP — lower, -0.304
- RRIRMRPPRLPRPRPRPCDNPRP — within 0.2 log units, 0.0146
- RRIRMRPPRLPRPRPRPHAMPRP — within 0.2 log units, -0.0135
- RRIRSRPPRLPRPRPRPRKCPRP — within 0.2 log units, 0.149
- RRIRYRPPRLPRPRPRPCCNPRP — within 0.2 log units, 0.00367
- RRIRVRPPRLPRPRPRPLKSPRP — within 0.2 log units, -0.137
- RRIRHRPPRLPRPRPRPCISPRP — within 0.2 log units, -0.13
- RRIRKRPPRLPRPRPRPAVTPRP — within 0.2 log units, 0.0318
- RRIRTRPPRLPRPRPRPNSGPRP — within 0.2 log units, 0.00712
- RRIRLRPPRLPRPRPRPTYKPRP — within 0.2 log units, -0.244
- RRIRRRPPRLPRPRPRPNSTPRP — within 0.2 log units, -0.0128
- RRIRDRPPRLPRPRPRPRWMPRP — within 0.2 log units, -0.176
- RRIRWRPPRLPRPRPRPCGRPRP — higher, 0.376
- RRIRVRPPRLPRPRPRPSLEPRP — higher, 0.163
- RRIRARPPRLPRPRPRPSMRPRP — higher, 1.03
- RRIRNRPPRLPRPRPRPAYRPRP — within 0.2 log units, 0.105
- RRIRFRPPRLPRPRPRPAWVPRP — higher, 0.255
- RRIRFRPPRLPRPRPRPPYEPRP — within 0.2 log units, -0.202
- RRIRCRPPRLPRPRPRPWSQPRP — within 0.2 log units, -0.0595
- RRIRRRPPRLPRPRPRPNQHPRP — within 0.2 log units, 0.00413
- RRIRCRPPRLPRPRPRPSSEPRP — lower, -0.284
- RRIRSRPPRLPRPRPRPNAGPRP — within 0.2 log units, 0.0362
- RRIRGRPPRLPRPRPRPSNFPRP — within 0.2 log units, 0.0228
- RRIRFRPPRLPRPRPRPTNPPRP — within 0.2 log units, -0.0887
- RRIRARPPRLPRPRPRPMHQPRP — within 0.2 log units, 0.0908
- RRIRLRPPRLPRPRPRPGGFPRP — higher, 0.176
- RRIRLRPPRLPRPRPRPSYRPRP — within 0.2 log units, -0.242
- RRIRKRPPRLPRPRPRPWVFPRP — within 0.2 log units, 0.0817
- RRIRNRPPRLPRPRPRPPQDPRP — within 0.2 log units, 0.0281
- RRIRKRPPRLPRPRPRPIDNPRP — within 0.2 log units, 0.0107
- RRIRNRPPRLPRPRPRPCWIPRP — within 0.2 log units, -0.00906
- RRIRGRPPRLPRPRPRPQIKPRP — higher, 0.324
- RRIRMRPPRLPRPRPRPSQMPRP — higher, 0.344
- RRIRIRPPRLPRPRPRPWFNPRP — lower, -1.25
- RRIRLRPPRLPRPRPRPFGFPRP — within 0.2 log units, -0.15
- RRIRKRPPRLPRPRPRPGGRPRP — higher, 1.91
- RRIRGRPPRLPRPRPRPHWCPRP — within 0.2 log units, 0.00693
- RRIRKRPPRLPRPRPRPVPQPRP — higher, 0.313
- RRIRFRPPRLPRPRPRPTGDPRP — within 0.2 log units, 0.127
- RRIRMRPPRLPRPRPRPEHSPRP — higher, 0.234
- RRIRNRPPRLPRPRPRPLEQPRP — within 0.2 log units, -0.166
- RRIRVRPPRLPRPRPRPANWPRP — higher, 0.224
- RRIRRRPPRLPRPRPRPEVLPRP — higher, 0.211
- RRIRWRPPRLPRPRPRPPWRPRP — higher, 0.696
- RRIRNRPPRLPRPRPRPDNNPRP — within 0.2 log units, -0.187
- RRIRQRPPRLPRPRPRPRFEPRP — within 0.2 log units, 0.0165
- RRIRYRPPRLPRPRPRPYCKPRP — lower, -1.32
- RRIRIRPPRLPRPRPRPNCIPRP — lower, -0.408
- RRIRGRPPRLPRPRPRPQMSPRP — higher, 0.395
- RRIRCRPPRLPRPRPRPTAPPRP — higher, 0.826
- RRIRLRPPRLPRPRPRPQRKPRP — higher, 0.198
- RRIRQRPPRLPRPRPRPIPSPRP — within 0.2 log units, -0.0138
- RRIRIRPPRLPRPRPRPRNRPRP — within 0.2 log units, -0.125
- RRIRPRPPRLPRPRPRPIVWPRP — within 0.2 log units, 0.0606
- RRIRIRPPRLPRPRPRPRITPRP — lower, -0.354
- RRIRLRPPRLPRPRPRPQNFPRP — within 0.2 log units, 0.0254
- RRIRSRPPRLPRPRPRPQSCPRP — within 0.2 log units, -0.00487
- RRIRLRPPRLPRPRPRPFVWPRP — within 0.2 log units, 0.118
- RRIRWRPPRLPRPRPRPRVNPRP — higher, 0.478
- RRIRMRPPRLPRPRPRPYWFPRP — within 0.2 log units, -0.131
- RRIRDRPPRLPRPRPRPNNVPRP — within 0.2 log units, -0.243
- RRIRRRPPRLPRPRPRPIRHPRP — higher, 0.307
- RRIRARPPRLPRPRPRPSPKPRP — higher, 0.303
- RRIRNRPPRLPRPRPRPELHPRP — within 0.2 log units, 0.102
- RRIRYRPPRLPRPRPRPNFFPRP — within 0.2 log units, -0.074
- RRIRDRPPRLPRPRPRPCLMPRP — higher, 0.209
- RRIRIRPPRLPRPRPRPKTNPRP — lower, -0.334
- RRIRLRPPRLPRPRPRPQKTPRP — within 0.2 log units, -0.03
- RRIRDRPPRLPRPRPRPVCDPRP — higher, 0.696
- RRIRIRPPRLPRPRPRPLIAPRP — within 0.2 log units, -0.24
- RRIRNRPPRLPRPRPRPGHDPRP — within 0.2 log units, 0.0277
- RRIRLRPPRLPRPRPRPRMSPRP — lower, -1
- RRIRIRPPRLPRPRPRPVYNPRP — lower, -0.314
- RRIRKRPPRLPRPRPRPPRIPRP — higher, 0.323
- RRIRIRPPRLPRPRPRPTEKPRP — within 0.2 log units, 0.0176
- RRIRNRPPRLPRPRPRPWNTPRP — within 0.2 log units, 0.0705
- RRIRHRPPRLPRPRPRPNNIPRP — lower, -1.2
- RRIRFRPPRLPRPRPRPWAKPRP — within 0.2 log units, -0.0227
- RRIRKRPPRLPRPRPRPPFIPRP — within 0.2 log units, -0.00551
- RRIRFRPPRLPRPRPRPFSCPRP — lower, -0.599
- RRIRWRPPRLPRPRPRPCHLPRP — within 0.2 log units, -0.211
- RRIRTRPPRLPRPRPRPYEMPRP — lower, -0.482
- RRIRYRPPRLPRPRPRPFKHPRP — lower, -0.349
- RRIRARPPRLPRPRPRPPDWPRP — higher, 1.23
- RRIRERPPRLPRPRPRPRRSPRP — within 0.2 log units, -0.021
- RRIRRRPPRLPRPRPRPQCTPRP — within 0.2 log units, -0.122
- RRIRIRPPRLPRPRPRPMTCPRP — within 0.2 log units, -0.00783
- RRIRMRPPRLPRPRPRPPRVPRP — higher, 1.23
- RRIRNRPPRLPRPRPRPEGTPRP — within 0.2 log units, 0.105
- RRIRYRPPRLPRPRPRPKLQPRP — within 0.2 log units, 0.124
- RRIRQRPPRLPRPRPRPNVCPRP — lower, -0.575
- RRIRERPPRLPRPRPRPNINPRP — lower, -1.05
- RRIRARPPRLPRPRPRPEKIPRP — higher, 0.649
- RRIRFRPPRLPRPRPRPDYAPRP — lower, -1.13
- RRIRTRPPRLPRPRPRPTHRPRP — within 0.2 log units, -0.185
- RRIRCRPPRLPRPRPRPKDIPRP — within 0.2 log units, -0.0796
- RRIRRRPPRLPRPRPRPPDQPRP — higher, 0.764
- RRIRQRPPRLPRPRPRPQNQPRP — within 0.2 log units, -0.17
- RRIRRRPPRLPRPRPRPWALPRP — within 0.2 log units, -0.0259
- RRIRYRPPRLPRPRPRPWPMPRP — within 0.2 log units, -0.0578
- RRIRERPPRLPRPRPRPGRFPRP — within 0.2 log units, 0.0216
- RRIRDRPPRLPRPRPRPRTIPRP — within 0.2 log units, -0.018
- RRIRSRPPRLPRPRPRPCMPPRP — lower, -0.375
- RRIRTRPPRLPRPRPRPMQQPRP — within 0.2 log units, 0.065
- RRIRRRPPRLPRPRPRPHYIPRP — lower, -0.662
- RRIRLRPPRLPRPRPRPFKVPRP — within 0.2 log units, 0.0321
- RRIRRRPPRLPRPRPRPVKDPRP — within 0.2 log units, -0.0534
- RRIRNRPPRLPRPRPRPLTCPRP — within 0.2 log units, -0.149
- RRIRKRPPRLPRPRPRPIVGPRP — within 0.2 log units, 0.117
- RRIRWRPPRLPRPRPRPTEFPRP — within 0.2 log units, -0.0793
- RRIRDRPPRLPRPRPRPTPIPRP — within 0.2 log units, 0.103
- RRIRPRPPRLPRPRPRPQELPRP — within 0.2 log units, 0.126
- RRIRDRPPRLPRPRPRPIVCPRP — within 0.2 log units, 0.0446
- RRIRLRPPRLPRPRPRPNICPRP — within 0.2 log units, -0.132
